52 molecules from patent US20250026849A1 (ARCELLX, published 2025) can be followed below.

Numbering of substitutions follows the chain as printed.

The labels stand for the following.
T1: CD123 (Homo sapiens (Human), UniProt P26951 19-305, limits assumed)
T1 construct: The CD123 construct used in the ELISA is not described; also called CD123-Signal
T1 sequence: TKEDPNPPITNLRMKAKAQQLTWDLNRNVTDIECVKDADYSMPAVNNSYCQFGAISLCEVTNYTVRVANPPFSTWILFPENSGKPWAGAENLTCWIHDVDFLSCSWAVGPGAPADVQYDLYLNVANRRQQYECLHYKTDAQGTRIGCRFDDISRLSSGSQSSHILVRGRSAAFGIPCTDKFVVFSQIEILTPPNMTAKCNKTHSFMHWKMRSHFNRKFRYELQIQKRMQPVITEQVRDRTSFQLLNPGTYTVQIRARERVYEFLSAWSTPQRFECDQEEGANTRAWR

B1: D domain of SEQ ID NO: 442 (designed binder)
chain: MGSWVEFHMRLDAIYERLDALGGSEAELAAFEKEIAAFESELQAYKGKGNPEVEWLRTAAANIRVELQAYRHN
B2: D domain of SEQ ID NO: 446 (designed binder)
chain: B1 chain with V5S, M9V, E16A, W55R, T58E, A59W, V65R
B3: D domain of SEQ ID NO: 439 (designed binder)
chain: B1 chain with V5Y, H8A, M9K, D19V, T58S, A59S, V65E
B4: D domain of SEQ ID NO: 443 (designed binder)
chain: B1 chain with V5Y, H8A, M9I, D19H, W55Y, T58V, A59W, V65T
B5: D domain of SEQ ID NO: 440 (designed binder)
chain: B1 chain with V5T, H8Y, M9V, T58M, A59V, V65T
B6: D domain of SEQ ID NO: 435 (designed binder)
chain: B1 chain with V5S, H8N, D19T, T58H, A59S, N62R, V65L
B7: D domain of SEQ ID NO: 436 (designed binder)
chain: B1 chain with V5S, H8N, D19T, T58H, A59S, N62L, V65L
B8: D domain of SEQ ID NO: 453 (designed binder)
chain: B1 chain with H8N, M9W, E16D, D19V, T58V, A59S, N62K, V65G
B9: D domain of SEQ ID NO: 357 (designed binder)
chain: MGSWYEFVIRLEAIEDRLWALGGSEAELAAFEKEIAAFESELQAYKGKGNPEVEVLRWYAADIRHELQAYRHN
B10: D domain of SEQ ID NO: 454 (designed binder)
chain: B1 chain with V5N, H8A, M9W, E16S, D19A, T58V, V65Y
B11: D domain of SEQ ID NO: 437 (designed binder)
chain: B1 chain with V5I, H8N, D19V, T58K, A59V, V65L
B12: D domain of SEQ ID NO: 441 (designed binder)
chain: B1 chain with H8Y, M9T, E16G, T58Q, A59V, V65M
B13: D domain of SEQ ID NO: 455 (designed binder)
chain: B1 chain with V5T, H8A, M9W, E16D, D19L, T58H, A59V, V65R
B14: D domain of SEQ ID NO: 448 (designed binder)
chain: B1 chain with H8E, Y15V, E16G, D19Y, W55K, T58R, A59W, V65S
B15: D domain of SEQ ID NO: 452 (designed binder)
chain: B1 chain with V5T, H8N, M9L, E16G, D19S, W55F, T58A
B16: D domain of SEQ ID NO: 456 (designed binder)
chain: B1 chain with H8S, M9I, E16T, D19V, W55M, T58K, A59G, V65K
B17: D domain of SEQ ID NO: 450 (designed binder)
chain: B1 chain with V5H, H8G, M9V, E16D, D19M, W55F, T58Q, V65S
B18: D domain of SEQ ID NO: 358 (designed binder)
chain: B9 chain with Y5T, V8S, E15Y, W19V, W58T, D62N
B19: D domain of SEQ ID NO: 447 (designed binder)
chain: B1 chain with M9L, E16G, D19M, W55N, T58V, A59W, V65N
B20: D domain of SEQ ID NO: 451 (designed binder)
chain: B1 chain with V5T, H8N, M9L, E16D, D19M, T58A, A59S, N62A
B21: D domain of SEQ ID NO: 449 (designed binder)
chain: B1 chain with H8N, M9I, D19Y, W55K, T58H, A59W, N62S, V65R
B22: D domain of SEQ ID NO: 445 (designed binder)
chain: MGSWSEFYVRVDAIYARLSALGGSEAELAAFEKEIAAFESELQAYKGKGNPEVEKLRVWAANIRHELQAYRHN
B23: D domain of SEQ ID NO: 438 (designed binder)
chain: B1 chain with V5Y, M9H, D19L, T58S, A59S, V65K
B24: D domain of SEQ ID NO: 359 (designed binder)
chain: B9 chain with Y5T, V8S, E15Y, W19V, W58T, D62F
B25: D domain of SEQ ID NO: 444 (designed binder)
chain: B1 chain with V5N, H8V, M9I, D19L, W55Y, T58M, V65M
B26: D domain of SEQ ID NO: 356 (designed binder)
chain: B9 chain with Y5T, V8Y, I9Y, V55F, W58V, Y59E, D62N, H65D, E66M
B27: D domain of SEQ ID NO: 351 (designed binder)
chain: MGSWVEFWFRLEAIDSRLWALGGSEAELAAFEKEIAAFESELQAYKGKGNPEVEWLREEAAAIREDLQAYRHN
B28: D domain of SEQ ID NO: 350 (designed binder)
chain: B27 chain with V5A, W8E, F9D, E12W, D15E, S16D, W55Y, E65F, D66E
B29: D domain of SEQ ID NO: 403 (designed binder)
chain: B9 chain with V8W, I9D, E12D, I14L, V55Y, W58D, Y59S, D62F, H65E
B30: D domain of SEQ ID NO: 354 (designed binder)
chain: B27 chain with V5S, W8I, F9T, S16D, W55I, A62E, E65Q, D66H
B31: D domain of SEQ ID NO: 413 (designed binder)
chain: B27 chain with V5F, W8E, F9D, D15Y, S16Q, W19D, E58D, A62W, E65S
B32: D domain of SEQ ID NO: 355 (designed binder)
chain: B27 chain with V5Y, W8E, F9T, D15Y, S16D, W55L, E58V, A62E
B33: D domain of SEQ ID NO: 402 (designed binder)
chain: MGSWFEFDDRLWAIENRLWALGGSEAELAAFEKEIAAFESELQAYKGKGNPEVEVLRDNAAWIREILQAYRHN
B34: D domain of SEQ ID NO: 362 (designed binder)
chain: B27 chain with W8H, F9D, D15E, S16D, W19Y, E59D, A62Y, E65S, D66I
B35: D domain of SEQ ID NO: 363 (designed binder)
chain: MGSWIEFYDRLEAIYDRLDALGGSEAELAAFEKEIAAFESELQAYKGKGNPEVEWLREDAAFIRSWLQAYRHN
B36: D domain of SEQ ID NO: 414 (designed binder)
chain: B27 chain with V5F, W8H, F9D, E12W, S16E, W55I, A62D, E65L
B37: D domain of SEQ ID NO: 416 (designed binder)
chain: B33 chain with D8Q, E15D, V55E, N59H, W62M, E65W, I66E
B38: D domain of SEQ ID NO: 401 (designed binder)
chain: B33 chain with F5Y, D8Y, D9E, W12D, N16E, N59W, I66D
B39: D domain of SEQ ID NO: 412 (designed binder)
chain: B27 chain with V5F, F9D, D15W, S16E, W19D, W55E, E58R, A62I
B40: D domain of SEQ ID NO: 364 (designed binder)
chain: B35 chain with I5V, Y8D, D9Q, D19Y, F62Q, S65K
B41: D domain of SEQ ID NO: 352 (designed binder)
chain: B27 chain with F9Q, D15E, W55F, A62E, E65W, D66E
B42: D domain of SEQ ID NO: 349 (designed binder)
chain: B27 chain with V5T, W8H, F9D, S16D, W55Y, A62Q, E65W, D66E
B43: D domain of SEQ ID NO: 396 (designed binder)
chain: B1 chain with H8D, D12S, Y15W, D19I, T58E, A59D, N62E, V65E, E66F
B44: D domain of SEQ ID NO: 404 (designed binder)
chain: B27 chain with V5M, W8V, F9D, E12D, D15E, E58I, A62F, D66E
B45: D domain of SEQ ID NO: 397 (designed binder)
chain: B1 chain with H8D, M9Q, D19Y, T58D, A59E, N62E, V65E, E66H
B46: D domain of SEQ ID NO: 405 (designed binder)
chain: B33 chain with F5D, D8V, N16E, V55E, D58I, N59Q, W62I, I66A
B47: D domain of SEQ ID NO: 361 (designed binder)
chain: B35 chain with I5V, Y8H, D9E, Y15E, D19M, W55Y, S65Q, W66L
B48: D domain of SEQ ID NO: 365 (designed binder)
chain: B35 chain with I5V, Y8H, Y15E, D19L, W55D, D59Y, F62G, S65W, W66F
B49: D domain of SEQ ID NO: 400 (designed binder)
chain: B27 chain with W8Y, F9S, E12D, D15E, S16D, E58I, E59A, A62S
B50: D domain of SEQ ID NO: 430 (designed binder)
chain: B27 chain with V5M, W8E, F9E, E12W, E58S, A62W, E65M, D66E
B51: D domain of SEQ ID NO: 353 (designed binder)
chain: B27 chain with V5S, F9Q, D15E, S16D, E59N, A62M, E65D, D66E
B52: D domain of SEQ ID NO: 415 (designed binder)
chain: B33 chain with F5Y, D8E, E15D, V55E, D58V, N59H, W62D, E65D, I66D

For this test, the target named is T1, CD123. The experiment in a line: ELISA. Also noted: unit not given here.
For B1, the ELISA_avg was found to be 9.1.

Regarding B2, the ELISA_avg came to 14.4.

For B3, the ELISA_avg was determined as 15.3.

Consider B4, for which the ELISA_avg amounted to 25.5.

B5: the ELISA_avg worked out at 16.

B6 showed an ELISA_avg of 13.7.

B7 showed an ELISA_avg of 11.4.

In turn, B8 displayed an ELISA_avg of 9.3.

B9 returned an ELISA_avg of 6.4.

Regarding B10, the ELISA_avg came to 17.7.

For the molecule B11, the ELISA_avg was 11.4.

As to B12, the ELISA_avg was 14.4.

In the case of B13, the ELISA_avg amounted to 16.1.

Take B14: the ELISA_avg was determined as 25.3.

In turn, B15 came in with an ELISA_avg of 19.3.

Molecule B16 returned an ELISA_avg of 15.1.

B17 showed an ELISA_avg of 15.6.

For B18, the ELISA_avg is 11.9.

Molecule B19 came in with an ELISA_avg of 17.5.

For the molecule B20, the ELISA_avg was 14.4.

Turning to B21, the ELISA_avg was found to be 13.4.

Molecule B22 registered an ELISA_avg of 14.7.

Take B23: the ELISA_avg was 11.9.

Turning to B24, the ELISA_avg amounted to 10.2.

The molecule B25 yielded an ELISA_avg of 16.6.

B26 returned an ELISA_avg of 7.5.

As to B27, the ELISA_avg turned out to be 3.2.

In turn, B28 returned an ELISA_avg of 6.2.

Consider B29, for which the ELISA_avg was determined as 9.7.

Molecule B30 came in with an ELISA_avg of 3.3.

Consider B31, for which the ELISA_avg was determined as 5.5.

In turn, B32 displayed an ELISA_avg of 3.2.

Molecule B33 came in with an ELISA_avg of 4.2.

Take B34: the ELISA_avg worked out at 4.6.

For B35, the ELISA_avg was determined as 7.5.

Take B36: the ELISA_avg came to 3.5.

Consider B37, for which the ELISA_avg turned out to be 3.2.

Turning to B38, the ELISA_avg is 8.4.

In the case of B39, the ELISA_avg amounted to 10.3.

For B40, the ELISA_avg is 5.1.

As to B41, the ELISA_avg worked out at 7.7.

In the case of B42, the ELISA_avg was 5.8.

For B43, the ELISA_avg is 3.3.

In turn, B44 came in with an ELISA_avg of 5.8.

Take B45: the ELISA_avg is 10.5.

As to B46, the ELISA_avg was 6.

Take B47: the ELISA_avg turned out to be 3.7.

As to B48, the ELISA_avg was determined as 3.3.

For B49, the ELISA_avg turned out to be 9.4.

The molecule B50 gave an ELISA_avg of 3.2.

As to B51, the ELISA_avg came to 4.7.

For B52, the ELISA_avg was 4.9.
